Results as given in US20150266963A1 (ARGEN X B V, published 2015).

How the values were obtained:
[1] = target: T1, human-mouse CD70 chimera chim-2 (Flag-TNC-CD70); assay: ELISA; chimera captured by anti-Flag mAb
T1 construct: also called chimera 2
T1 chain: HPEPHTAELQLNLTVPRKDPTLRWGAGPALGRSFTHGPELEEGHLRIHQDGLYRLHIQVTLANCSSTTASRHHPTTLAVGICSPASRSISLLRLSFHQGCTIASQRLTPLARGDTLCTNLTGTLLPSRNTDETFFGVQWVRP

[2] = target: T2, human-mouse CD70 chimera chim-3 (Flag-TNC-CD70); assay: ELISA; chimera captured by anti-Flag mAb
T2 construct: also called chimera 3
T2 chain: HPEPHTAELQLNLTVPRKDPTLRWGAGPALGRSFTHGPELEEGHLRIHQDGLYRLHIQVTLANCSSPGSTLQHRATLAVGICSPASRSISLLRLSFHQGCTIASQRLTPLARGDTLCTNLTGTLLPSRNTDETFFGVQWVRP

[3] = target: T3, human-mouse CD70 chimera chim-4 (Flag-TNC-CD70) (Mus musculus (Mouse), UniProt O55237 54-192); assay: ELISA; chimera captured by anti-Flag mAb
T3 construct: also called chimera 4
T3 chain: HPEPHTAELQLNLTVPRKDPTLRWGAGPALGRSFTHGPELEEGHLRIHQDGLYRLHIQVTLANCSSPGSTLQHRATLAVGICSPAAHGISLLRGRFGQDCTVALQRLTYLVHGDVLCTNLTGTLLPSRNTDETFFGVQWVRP

[4] = target: T4, human CD70 expressed on the surface of cells (human, UniProt P32970 1-193); assay: FACS MFI at 37 C, Raji cells; reference SGN70
T4 construct: whole, on cells; also called cell surface expressed CD70; CD70 on cells
T4 sequence (looked up): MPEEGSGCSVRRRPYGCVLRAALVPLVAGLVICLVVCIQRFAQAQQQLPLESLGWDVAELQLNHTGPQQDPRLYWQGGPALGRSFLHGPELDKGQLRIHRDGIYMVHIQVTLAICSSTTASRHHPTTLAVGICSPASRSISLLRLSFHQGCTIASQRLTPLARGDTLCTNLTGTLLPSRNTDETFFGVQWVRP
Experimental: (§1) Several cancer cell lines were tested by FACS analysis for binding of ARGX-110 and SGN70 (described in US2010/0129362) at saturating mAb concentrations (at least 2 μg/ml). This was either done at 4° C. (1 hour incubation of cells with mAbs) or at 37° C. (15 minutes incubation of cells with mAbs). Binding was detected using anti-hIgG1-Fc-FITC (AF006, Binding Site) or anti-hIgG1-Fc-PE antibody (eBioscience, 12-4998). Fluorescence was measured using a flow cytometer.

[5] = target: T4, human CD70 expressed on the surface of …; assay: FACS MFI at 37 C, 786-O cells; reference SGN70
Experimental: as §1

[6] = target: T4, human CD70 expressed on the surface of …; assay: FACS MFI at 37 C, HUT78 cells; reference SGN70
Experimental: as §1

[7] = target: T4, human CD70 expressed on the surface of …; assay: FACS MFI at 37 C, JVM-2 cells; reference SGN70
Experimental: as §1

[8] = target: T4, human CD70 expressed on the surface of …; assay: FACS MFI at 37 C, U87MG cells; reference SGN70
Experimental: as §1

[9] = target: T4, human CD70 expressed on the surface of …; assay: FACS MFI at 37 C, Caki-1 cells; reference SGN70
Experimental: as §1

[10] = target: T4, human CD70 expressed on the surface of …; assay: FACS MFI at 37 C, MKN-45 cells; reference SGN70
Experimental: as §1

[11] = target: T4, human CD70 expressed on the surface of …; assay: FACS MFI at 37 C, Granta 519 cells; reference SGN70
Experimental: as §1

mouse Flag-TNC-CD70 = target: T5, mouse Flag-TNC-CD70 (mouse, UniProt O55237 45-195); assay: ELISA; mouse Flag-TNC-CD70 captured by anti-Flag mAb
T5 construct: extracellular domain; also called mouse CD70; not shown: Flag tag and TNC trimerisation domain
T5 sequence (looked up): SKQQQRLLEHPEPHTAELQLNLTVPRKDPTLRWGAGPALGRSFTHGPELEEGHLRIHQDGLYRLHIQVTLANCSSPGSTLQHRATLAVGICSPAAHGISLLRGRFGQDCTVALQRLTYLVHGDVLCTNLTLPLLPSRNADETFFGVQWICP

[12] = target: T6, rhesus recombinant CD70 (FLAG-TNC-rhesus CD70) (rhesus); assay: blocking ELISA; rhesus Flag-TNC-CD70; competitor CD27-Fc
T6 construct: also called rhesus Flag-TNC-CD70

[13] = target: T4, human CD70 expressed on the surface of …; assay: flow cytometry on U266 cells, 1 h at 4 °C, anti-hIgG1-Fc-FITC or anti-hIgG-Fc-PE [panel U266]
Experimental: (§2) […] This was either done at 4° C. (1 hour incubation of cells with mAbs) or at 37° C. (15 minutes incubation of cells with mAbs). Binding was detected using anti-hIgG1-Fc-FITC (AF006, Binding Site) or anti-hIgG1-Fc-PE antibody (eBioscience, 12-4998). Fluorescence was measured using a flow cytometer.

[14] = target: T7, cynomolgus monkey CD70 on HSC-F cells (cynomolgus monkey, UniProt A0A2K5WTU9 1-190); assay: flow cytometry on cynomolgus HSC-F cells, goat anti human IgG1 FITC [panel cynomolgus monkey]
T7 construct: whole, on cells; also called cynomolgus CD70
T7 sequence: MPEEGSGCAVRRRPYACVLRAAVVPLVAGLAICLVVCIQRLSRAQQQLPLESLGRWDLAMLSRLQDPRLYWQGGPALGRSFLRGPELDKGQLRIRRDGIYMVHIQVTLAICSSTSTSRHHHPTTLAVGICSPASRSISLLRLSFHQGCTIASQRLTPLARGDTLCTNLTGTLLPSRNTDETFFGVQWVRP

[15] = target: T4, human CD70 expressed on the surface of …; assay: flow cytometry on SU-DHL-6 cells, 1 h at 4 °C, anti-hIgG1-Fc-FITC or anti-hIgG-Fc-PE [panel SU-DHL-6]
Experimental: as §2

Signal in FACS of ARGX-110/signal in FACS of SGN70 [4]: 1.2 ratio | Signal in FACS of ARGX-110/signal in FACS of SGN70 [5]: 2.1 ratio | Signal in FACS of ARGX-110/signal in FACS of SGN70 [6]: 1 ratio | Signal in FACS of ARGX-110/signal in FACS of SGN70 [7]: 2.4 ratio | Signal in FACS of ARGX-110/signal in FACS of SGN70 [8]: 2 ratio | Signal in FACS of ARGX-110/signal in FACS of SGN70 [9]: 1.9 ratio | Signal in FACS of ARGX-110/signal in FACS of SGN70 [10]: 10.6 ratio | Signal in FACS of ARGX-110/signal in FACS of SGN70 [11]: 0.9 ratio | IC50 [12]: 0.075 µg/mL | EC50 (read off the curve) [13]: ~100 ng/mL | EC50 (read off the curve) [14]: ~80 ng/mL | EC50 (read off the curve) [15]: ~2000 ng/mL
B1: ARGX-110 (non-fucosylated 41D12 human IgG1) (antibody, V domains shown)
VH: EVQLVESGGGLVQPGGSLRLSCAASGFTFSVYYMNWVRQAPGKGLEWVSDINNEGGTTYYADSVKGRFTISRDNSKNSLYLQMNSLRAEDTAVYYCARDAGYSNHVPIFDSWGQGTLVTVSS
VL: QAVVTQEPSLTVSPGGTVTLTCGLKSGSVTSDNFPTWYQQTPGQAPRLLIYNTNTRHSGVPDRFSGSILGNKAALTITGAQADDEAEYFCALFISNPSVEFGGGTQLTVLG
notes: also called 41D12 (ARGX-110)
binding result [1]: no binding (tested: dilution series from 10 µg/ml) | binding result [2]: no binding (tested: dilution series from 10 µg/ml) | binding result [3]: no binding (tested: dilution series from 10 µg/ml) | binding result (mouse Flag-TNC-CD70): no binding (tested: dilution series from 10 µg/ml)
